Test results from patent CN112159475A (NANJING KAEDI BIOTECH INC, dated 2021).

T1: 融合至人IgG1 Fc段的人Siglec-15胞外结构域的重组蛋白Siglec-15-Fc (human, UniProt Q6ZMC9 20-263)
T1 construct: extracellular domain; also called 人Siglec-15重组蛋白; Siglec-15-Fc重组蛋白; not shown: human IgG1 Fc segment
T1 sequence (looked up): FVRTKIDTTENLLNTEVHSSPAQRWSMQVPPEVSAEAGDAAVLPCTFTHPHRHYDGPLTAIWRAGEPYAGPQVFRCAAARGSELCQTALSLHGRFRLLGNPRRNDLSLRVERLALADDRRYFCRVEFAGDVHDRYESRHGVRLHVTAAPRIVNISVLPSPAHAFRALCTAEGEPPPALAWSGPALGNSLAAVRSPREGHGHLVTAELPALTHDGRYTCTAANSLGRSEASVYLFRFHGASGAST


Biological target: T1, 融合至人IgG1 …
Assay: indirect ELISA, plate coated with 0.5 ug/ml Siglec-15-Fc, purified antibody titrated from 10 ug/ml

Row | Binder | EC50 [ng/mL]
1 | KD075-C40 (antibody, V domains shown) VH: EVRLQQSGPELVKPGASVKISCKASGYTFTDYNIHWMKQSHGKSLEWIGYIYPSFGGTAYNQKFKSKATLTVDNSSSTAYMEFRSLTSEDSAVYFCAVYGNYEGFAYWGQGTLVTVSA VL: ENVLTQSPAIMSASLGEKVTMSCRASSSVNYMYWYQQKSDASPKLWIYYTSNLAPGVPARFSGSGSGNSYYLTISSMEGEDAATYYCQQFTSSPWTFGGGTKLEIK | 2.41
2 | KD075-C30 (antibody, V domains shown) VH: DVQLVESGGGLVQPGGSRKLSCAASGFTFSSFGMHWVRQAPEKGLEWVAYISSGSSSIYYADTVKGRFTISRDNPKNTLFLQMTSLRSEDTAMYYCARTFPMDYWGQGTSVTVSS VL: QAVVTQESALTTSPGETVTLTCRSSTGAVTISNYANWVQEKPDHLFTGLIGGTYNRSPGVPARFSGSLIGDKAALTITGAQTEDEAIYFCALWYSNHWVFGGGTKLTVL | 2.27
3 | KD075-C31 (antibody, V domains shown) VH: DVQLVESGGGLVQPGTSRKLSCTASGFTFSSFGMHWVRQAPEKGLEWVAYISSGSSSIYYADTVKGRFTISRDNPKNTLFLQMTSLRSEDTAIYYCARTFPMDYWGQGTSVTVSS VL: QAVVTQESALTTSPGETVTLTCRSSTGAVTISNYANWVQEKPDHLFTGLIGGTYNRSPGVPARFSGSLIGDKAALTITGAQTEDEAIYFCALWYSNHWVFGGGTKLTVL | 2.4
4 | KD075-C52 (antibody, V domains shown) VH: EVQLVESGGGLVKPGGSLKLSCAASGFTFSYYAMSWVRQTPEKRLEWVATVSDVDDYTYYPDNVKGRFNISRDNAKNNLYLQMRHLKSEDTAMYYCVRDGSYGWYFDVWGTGTTVTVSS VL: DIVMTQSPSSLTVTAGEKVTMSCKSSQSLLNSGNQKNYLTWYQQKPGQTPKLLIYWASTRESGVPDRFTGSGSGTDFTLTISSVQAEDLAVYYCQNDYSYPLTFGTGTKLELK | 2.25
5 | KD075-C9 (antibody, V domains shown) VH: not shown VL: DIVMTQSHKFMSTSVGDRVSITCKASQDVSTAVVWYQQKPGQSPKLLIDSASYRYTGVPDRFTGSGSGTDFTFTISSVQAEDLAVYYCQQHYSTPRTFGGGTKLEIK | 1.97
6 | KD075-C18 (antibody, V domains shown) VH: not shown VL: DIVMTQSHKFMSTSVGDRVSITCKASQDVSTAVAWYQQKLGQSPKLLISSASYRYTGVPDRFTGSGSGTDFTFTISSVQAEDLAVYYCQQHYSTPRTFGGGTKLEIK | 2.3
7 | KD075-C46 (antibody, V domains shown) VH: EVKLVESEGGLVQPGSSMKLSCTASGFTFSDYYMAWVRQVPEKGLEWVAKINYDGSSTYYLDSLKSRFIISRDNAKNILYLQMSSLKSEDTATYYCARSYDYDGYYFDYWGQGTTLTVSS VL: DIVLTQSPASLAMSLGKRATISCRASESVSIIGTNLIHWYQQKPGQPPKLLIYHASNLETGVPARFSGSGSRTDFTLTIDPVEEDDVAIYYCLQSRKIPWTFGGGTKLEIK | 2.29
